Laboratory results: PMC9409550 (PLoS ONE, 2022)

Columns and labels:
[1] = target: SARS-CoV-2 Omicron BA.1 RBD, yeast-displayed (SARS-CoV-2, UniProt P0DTC2); assay: flow cytometry on cells; settings: one partner purified
[2] = target: SARS-CoV-2 Omicron BA.2 RBD, yeast-displayed (SARS-CoV-2, UniProt P0DTC2); assay: flow cytometry on cells; settings: one partner purified

B1: CDY14HL-Fc1 (Fc fusion)
chain: QSTIEEQAKTFLDMFNHKAEDLFYQSSLAAWNYNTNITEENVQNMNNAGDKWSAFLKEQSTFAQMYPLQEIQNPTVKLQLQALQQNGSSVLSEDKSKRLNTILNTMSTIYSTGKVCNPDNPQECLLLEPGLNEIMANSLDYNERLWAWESWRSEVGKQLRPLYEEYVVLKNEMARANHYEDYGDYWRGDYEVNGVDGYDYSRGQLIEDVEHTFEEIKPLYEHLHAYVRAKLMNAYPSYISPIGCLPAHLLGDMWGRFWTNLYSLTVPFGQKPNIDVTDAMVDQAWDAQRIFKEAEKFFVSVGLPNMTQGFWEYSMLTDPGNVQKAVCLPTAWDLGKGDFRILMCTKVTMDDFLTAHHEMGHIQYDMAYAAQPFLLRNGANEGFHEAVGEIMSLSAATPKHLKSIGLLSPDFQEDNETEINFLLKQALTIVGTLPFTYMLEKWRWMVFKGEIPKDQWMKKWWEMKREIVGVVEPVPHDETYCDPASLFHVSNDYSFIRYYTRTLYQFQFQEALCQAAKHEGPLHKCDISNSTEAGQKLFNMLRLGKSEPWTLALENVVGAKNMNVRPLLNYFEPLFTWLKDQNKNSFVGWSTDWSPYAD
Q: How did the Kd [1] turn out when B1 was run?
A: 31 pM

Q: What about the Kd [2] of the same binder?
A: 24 pM
